# Reference: publication PMC5624926
# Test: recombinant expression of point mutants
# Conditions: glycan lost; control: wild-type CD22 20-330
substance,measurement,value
CD22 (Siglec-2): N101A,expression_or_secretion,decreases
